1 substance from article doi:10.1101/2020.12.03.409334 can be followed below.

For orientation: stoichiometry N means the number of molecules, sites or subunits per partner or assembly.

This assay deals with 4R1N tau::mCherry::Cry2Olig chimera (UniProt P10636). As to the kind of experiment: native gel or EMSA.

With “4R1N tau::mCherry::Cry2Olig chimera (from UniProt P10636-7 1-412)”, the stoichiometry N came to 2.
